This note sets out measurements from article PMC3795256.

In the assay the target is recombinant human Prx4 (human) (UniProt Q13162). As to the kind of experiment: SPR; ProteOn XPR36; Ero1α (WT) or Prx4 amine-coupled to a GLC chip, PDI or ERp44 as analyte (0.444–36 μM); 25 °C; 20 mM HEPES-NaOH pH 7.4, 150 mM NaCl, 0.001% Tween, 2 mM EDTA; two-state model.
Sequence of recombinant human Prx4 (human) (Q13162 38-271): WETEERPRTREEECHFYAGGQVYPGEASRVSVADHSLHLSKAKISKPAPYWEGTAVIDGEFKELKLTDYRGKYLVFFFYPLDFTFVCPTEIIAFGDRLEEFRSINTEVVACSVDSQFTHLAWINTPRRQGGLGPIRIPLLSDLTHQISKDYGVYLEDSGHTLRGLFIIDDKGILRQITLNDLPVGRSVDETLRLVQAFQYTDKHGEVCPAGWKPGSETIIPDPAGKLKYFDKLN

Sequence of recombinant human PDI, P07237 18-508 (natural protein; other documents disagree on this pair) (P07237 18-508): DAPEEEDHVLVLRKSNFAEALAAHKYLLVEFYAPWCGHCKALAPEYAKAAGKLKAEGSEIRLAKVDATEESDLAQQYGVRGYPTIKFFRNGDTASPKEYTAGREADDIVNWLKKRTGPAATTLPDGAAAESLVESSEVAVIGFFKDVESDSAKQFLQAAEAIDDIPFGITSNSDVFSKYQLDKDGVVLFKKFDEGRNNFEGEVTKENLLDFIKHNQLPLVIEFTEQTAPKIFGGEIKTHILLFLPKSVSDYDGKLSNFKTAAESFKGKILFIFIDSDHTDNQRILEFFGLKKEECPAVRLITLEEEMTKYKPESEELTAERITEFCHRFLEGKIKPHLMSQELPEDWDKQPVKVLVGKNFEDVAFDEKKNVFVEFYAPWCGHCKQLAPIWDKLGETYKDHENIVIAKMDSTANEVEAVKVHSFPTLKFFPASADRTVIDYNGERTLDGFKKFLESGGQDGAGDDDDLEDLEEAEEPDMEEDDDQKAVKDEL

Turning to “recombinant human PDI, P07237 18-508 (natural protein; other documents disagree on this pair)”, the Kd (in general, a measure of binding affinity in units of concentration) was 10.6 µM.
